Data: patent US10428308B2, “Mesoderm and definitive endoderm cell populations” (Icahn School of Medicine at Mount Sinai, priority 2005, dated 2019)

Tests used:
Assay type in all cases: cell-based, mouse
[1] = system: GFP-Bry ES cells / EBs; assay: Activin induction of brachyury (GFP) in serum-free EB cultures, FACS
Method: A) FACS profile showing GFP expression in day 6 EBs differentiated in the presence of 100 ng/ml of activin. B) Kinetics of GFP induction in cultures containing 100 ng/ml of activin. Open circles are EB differentiated in the presence of activin, closed squares are EBs differentiated in absence of activin. C) RT-PCR expression analysis of indicated genes in day 6 EBs grown in the presence (+activin) or absence (−activin) of activin. Numbers indicate day of EB differentiation.
FIGS. 23A and 23B show the effects of different concentrations of activin on the developmental potential of EBs. A) GFP expression in day 7 EBs induced with different concentrations of activin. B) RT-PCR expression analysis of day 7 EBs induced with different concentrations of activin.
To further enrich for cells with endodermal potential, the effects of growth factors known to induce this cell population in other model systems were tested. Studies in Xenopus have shown that activin will induce both mesoderm and endoderm from ectoderm in culture. Of particular interest was the observation that activin behaved as a morphogen in this model in that it induced different cell types at different concentrations used. […] ES cells were differentiated for 2 days in Stem Pro 34 medium without serum. At this stage, the developing EBs were harvested and recultured in IMDM supplemented with serum replacement (serum free) and activin at a concentration of 100 ng/ml. EBs were harvested at different days and assayed for GFP^+ expression and expression of genes indicative of ectoderm, mesoderm and endoderm development. […] While the kinetics of GFP induction was delayed compared to EBs differentiated in serum, this concentration of activin did induce substantial numbers of brachyury positive cells (60%) by day 6 of differentiation. […] Induction of pdx-1 is of interest, as this gene is essential for pancreas development. Genes associated with hematopoietic development, such as GATA-1 and those indicative of neuroectoderm differentiation such as PAX6 were not induced by activin.
As little as 1 ng/ml of activin induced GFP^+ expression (10% of the total population) by 7 days of culture (FIG. 23A). The frequency of GFP^+ cells increased to 40% in cultures stimulated with 3 ng/ml and reached plateau levels of greater than 50% at 30 ng/ml. […] HNF3β, Sox17, Hex-1 were all induced in cultures stimulated with 10, 30, or 100 ng/ml of activin. Pdx-1 expression required the highest amount of activin and was induced best in EBs stimulated with 100 ng/ml. Neither GATA1 nor c-fms was expressed at any concentration of activin.

[2] = system: CD4-HNF/GFP-T ES cells; assay: Activin A / Wnt3a induction of ES derived primitive streak like cells in serum free culture, with pathway inhibitors; details: serum free
Method: FIGS. 34A, 34B and 34C depict ES cells differentiated in serum free conditions with Activin A Wnt3a and/or inhibitors of these pathways. ES cells were cultured in serum free media for two days then trypsinized to obtain a single cell population. These cells were then reaggregated with the indicated conditions. At day six, the EBs were plated on matrigel coated dishes in serum free media.
Liu et. al. (1999) Nat. Genet. 22: 361-4. […] Activin stimulation leads to high levels of CD4 expression that persist after loss of GFP-Bry expression at day 6. […] Wnt does however stimulate expression of the posterior primitive streak markers HoxBI and Tbx6, while activin only induces Tbx6. […] At day 6, EBs that were stimulated with either activin or Wnt3a were plated on matrigel in serum free media to allow further development.
Considering that Wnt stimulation induces nodal and activin treatment induces Wnt3 (FIG. 34B), it is unknown whether activin/nodal signaling or Wnt Signaling alone can induce primitive streak formation or whether both factors are required together. CD4-HNF/GFP-T ES cells were induced with either activin or Wnt in conjunction with specific inhibitors of these pathways. DKK1 was used to inhibit Wnt signaling while the small molecule inhibitor SB-431542 (SB) was used to block Nodal/TGFβ signaling. DKK1 functions by binding the Wnt co-receptors, LRP5 and LRP6, which are essential for activation of the βcatenin signaling pathway. […] Inman et. al. (2002) MoI. Pharmacol. 62: 65-74. […] Therefore, to induce mesoderm and endoderm germ layers and their derivative tissues, both activin/Nodal and Wnt signals are required initially.

[3] = system: GFP^+ hCD4^med cells from CD4-HNF/GFP-T ES cells; assay: Reaggregation of sorted GFP^+ hCD4^med cells in serum free media with DKK1 and/or activin
Method: FIGS. 35A and 35B depict, the effects of DKK1 and activin on EB differentiation. EBs differentiated and sorted as in FIG. 32 for GFP^+ hCD4^med were allowed to reaggregate in serum replacement containing media alone or with the addition of human DKK1 100 ng/ml, activin 100 ng/ml, or both factors together. […] FIG. 35B depicts endodermal gene expression by RT PCR. The sorted populations were treated as indicated above for 2 days, then plated on matrigel in serum free media without factors added. Gene expression was analyzed an additional 5 days after plating.
Nodal, a key molecule involved in mesoderm/endoderm induction in vivo, signals through the same receptors as activin. It is also known that Nodal as well as inhibitors for Wnt signaling are expressed preferentially in or around the anterior primitive streak. Considering that the endoderm forms from the anterior primitive streak, it is possible that nodal/activin signaling in combination with inhibition of Wnt signals induces endoderm formation. To test this hypothesis, CD4-HNF/GFP-T ES cells were differentiated for 3.25 days in serum and GFP^+ hCD4^med cells were sorted and reaggregated in serum free media with no factor, DKK1 (Wnt inhibitor), activin, or activin and DKK1. The effect of these culture conditions on hCD4-HNF3β and GFP-Bry levels were analyzed by flow cytometry (FIG. 35A). With serum free media alone, hCD4 expression was lost after 1 day reaggregation. […] To further test this idea, sorted cells reaggregated for two days in the culture conditions above were washed with serum free media without factors and plated onto martrigel in serum free media. After 5 days, the cultures were harvested and gene expression determined by RT PCR. […] These culture conditions have the potential to allow the large scale production of endodermal derived tissues such as the pancreas and liver.

B1: activin: growth factor purchased from R&D systems; induces mesoderm and endoderm (protein, UniProt P08476 311-426, looked up)
Inhibin beta A chain: GLECDGKVNICCKKQFFVSFKDIGWNDWIIAPSGYHANYCEGECPSHIAGTSGSSLSFHSTVINHYRMRGHSPFANLKSCCVPTKLRPMSMLYYDDGQNIIKKDIQNMIVEECGCS
GFP^+ expression (% of the total population) ([1]; activin 1 ng/ml, 7 days of culture): 10%
frequency of GFP^+ cells ([1]; activin 3 ng/ml, day 7): 40%
frequency of GFP^+ cells, plateau level ([1]; activin 30 ng/ml, day 7): greater than 50%
brachyury positive cells (GFP) ([1]; activin 100 ng/ml, serum free, day 6 of differentiation): 60%
endodermal gene expression (Alb, Aat, HNF4, Pdxl) by RT-PCR ([2]; day 6 EBs plated on matrigel a further 6 days): allowed development of cells expressing the endodermal genes Alb, Aat, HNF4, and Pdxl
induction of GFP^+ CD4^+ cells ([2]; Activin A 25 ng/ml or Wnt3a 100 ng/ml): initially induce GFP^+ CD4^+ cells
endoderm gene expression by RT PCR (pancreas, liver, intestine genes) ([3]; 2 days treatment, then 5 days on matrigel without factors): Very low levels of just two of the genes, Pdxl and ALB
hCD4 (HNF3β) level by flow cytometry ([3]; after 1 day reaggregation, DKK1 100 ng/ml, activin 100 ng/ml): retention of HNF3β levels similar to newly sorted cells
